Source: patent US20210030857A1 (NGM BIOPHARMACEUTICALS, published 2021)

T1: cynomolgus beta klotho expressed on cells (cynomolgus monkey (Macaca fascicularis), UniProt Q86Z14 1-1044 (human entry))
T1 construct: also called Cynomolgus KLB
T1 chain: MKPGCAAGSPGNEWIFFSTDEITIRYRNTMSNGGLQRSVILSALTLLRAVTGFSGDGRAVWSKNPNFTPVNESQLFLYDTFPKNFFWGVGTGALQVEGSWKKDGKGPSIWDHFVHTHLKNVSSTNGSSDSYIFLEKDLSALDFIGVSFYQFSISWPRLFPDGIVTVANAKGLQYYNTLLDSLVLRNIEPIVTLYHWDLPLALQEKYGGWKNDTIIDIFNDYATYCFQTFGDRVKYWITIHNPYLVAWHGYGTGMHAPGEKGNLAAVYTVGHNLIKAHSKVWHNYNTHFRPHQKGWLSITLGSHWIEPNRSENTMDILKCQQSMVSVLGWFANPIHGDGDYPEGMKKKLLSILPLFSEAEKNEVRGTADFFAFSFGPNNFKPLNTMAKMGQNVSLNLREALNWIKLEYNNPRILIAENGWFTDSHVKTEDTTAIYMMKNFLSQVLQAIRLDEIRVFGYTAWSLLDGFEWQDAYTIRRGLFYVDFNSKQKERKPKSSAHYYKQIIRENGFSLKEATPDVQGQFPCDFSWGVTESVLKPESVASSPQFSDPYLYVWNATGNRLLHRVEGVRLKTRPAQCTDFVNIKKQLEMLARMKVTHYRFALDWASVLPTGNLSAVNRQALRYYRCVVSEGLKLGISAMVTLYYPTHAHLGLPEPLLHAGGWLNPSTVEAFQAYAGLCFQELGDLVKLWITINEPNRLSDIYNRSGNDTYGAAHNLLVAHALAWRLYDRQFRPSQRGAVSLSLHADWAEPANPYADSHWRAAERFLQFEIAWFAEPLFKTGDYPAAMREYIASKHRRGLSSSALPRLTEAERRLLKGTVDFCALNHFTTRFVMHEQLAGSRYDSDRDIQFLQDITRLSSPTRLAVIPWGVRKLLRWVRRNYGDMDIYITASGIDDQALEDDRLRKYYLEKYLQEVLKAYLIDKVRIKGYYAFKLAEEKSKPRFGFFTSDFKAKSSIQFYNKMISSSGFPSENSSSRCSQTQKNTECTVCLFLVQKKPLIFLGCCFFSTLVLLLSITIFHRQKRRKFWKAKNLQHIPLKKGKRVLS

T2: human beta klotho expressed on cells (human, UniProt Q86Z14 1-1044)
T2 construct: also called HuKLB overexpressing cells; Human KLB
T2 sequence: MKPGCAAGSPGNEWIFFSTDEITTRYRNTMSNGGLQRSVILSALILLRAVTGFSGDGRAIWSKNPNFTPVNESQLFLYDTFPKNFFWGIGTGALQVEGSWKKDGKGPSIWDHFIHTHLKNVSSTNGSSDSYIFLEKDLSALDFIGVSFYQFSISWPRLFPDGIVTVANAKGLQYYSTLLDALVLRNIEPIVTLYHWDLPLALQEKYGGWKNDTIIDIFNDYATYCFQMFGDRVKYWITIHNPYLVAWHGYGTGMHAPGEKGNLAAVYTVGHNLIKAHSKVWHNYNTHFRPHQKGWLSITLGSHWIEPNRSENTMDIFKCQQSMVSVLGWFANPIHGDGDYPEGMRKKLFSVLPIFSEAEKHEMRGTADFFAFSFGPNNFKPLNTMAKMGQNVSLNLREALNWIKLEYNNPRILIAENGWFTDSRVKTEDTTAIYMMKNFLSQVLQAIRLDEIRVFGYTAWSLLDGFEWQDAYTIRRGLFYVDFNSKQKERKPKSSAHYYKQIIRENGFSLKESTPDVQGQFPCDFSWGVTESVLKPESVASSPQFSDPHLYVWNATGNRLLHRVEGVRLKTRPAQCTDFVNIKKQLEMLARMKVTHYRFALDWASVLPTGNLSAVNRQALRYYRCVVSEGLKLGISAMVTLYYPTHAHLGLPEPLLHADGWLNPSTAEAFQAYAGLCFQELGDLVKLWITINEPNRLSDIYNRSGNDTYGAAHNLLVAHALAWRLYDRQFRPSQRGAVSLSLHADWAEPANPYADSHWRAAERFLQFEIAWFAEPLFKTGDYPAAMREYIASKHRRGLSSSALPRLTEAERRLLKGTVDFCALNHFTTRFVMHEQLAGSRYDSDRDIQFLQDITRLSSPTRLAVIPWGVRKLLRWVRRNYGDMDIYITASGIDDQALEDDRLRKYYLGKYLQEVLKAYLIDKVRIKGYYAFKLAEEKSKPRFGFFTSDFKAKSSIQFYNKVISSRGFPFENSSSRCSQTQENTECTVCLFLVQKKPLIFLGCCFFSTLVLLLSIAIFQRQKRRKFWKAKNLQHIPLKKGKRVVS

B1: negative control antibody, anti-keyhole limpet hemocyanin (KLH) antibody (antibody, human IgG1, kappa, V domains shown)
VH: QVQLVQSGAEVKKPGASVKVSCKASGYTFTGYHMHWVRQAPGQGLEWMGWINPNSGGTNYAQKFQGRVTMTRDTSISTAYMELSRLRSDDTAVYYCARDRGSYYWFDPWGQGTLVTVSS
VL: DIQMTQSPSSLSASVGDRVTITCRASQGIRNDLGWYQQKPGKAPKRLIYAASSLQSGVPSRFSGSGSGTEFTLTISSLQPEDFATYYCLQHNSYPLTFGGGTKVEIKR
notes: also called Neg; Control; anti-KLH antibody
B2: humanized 5H23 antibody (VH SEQ ID NO: 271 and VL SEQ ID NO: 276) (antibody, V domains shown)
VH: QVQLQQSGAEVKKPGASVKVSCKASGYTFTSYDINWVRQAPGQGLEWIGWIYPGDGSTKYNEKFKGKATITRDTSASTAYMELSSLRSEDTAVYFCARSDYYGSRSFAYWGQGTLVTVSS
VL: DIVMTQSPDSLAVSLGERATINCRASKSVSTSGYVYMHWYQQKPGQPPKLLIYLASYLESGVPDRFSGSGSGTDFTLTISSVQAEDVAVYYCQHSRDLTFPFGGGTKLEIK
notes: also called h5H23; h5H23 (Prep 1)

Experiments:
Experiment in all cases: FACS on transfected Expi293 cells
[1] = target: T1, cynomolgus beta klotho expressed on …
Protocol: (§1) Studies were performed in order to localize the binding site on human KLB of anti-beta klotho antibodies in the 5H23 epitope bin, including 5H23 as described in Example 3, with sequences shown in Tables 1-10 and FIGS. 1-3, and human anti-beta klotho antibodies in the 5H23 epitope bin, such as humanized 5H23 antibodies (e.g., VH SEQ ID NO: 271 and VL SEQ ID NO: 276). For example, FACS-based binding assays for domain mapping were performed on Expi293 cells (Life Technologies, A14635) that were transiently transfected with plasmids encoding variants of KLB: human, mouse, cynomolgus, a chimeric version in which the KL1 domain sequence of mouse KLB (M1-F506) replaces the KL1 domain of human KLB (M1-F508) to create mouse-human KLB (SEQ ID NO: 376), and a second chimera in which the human KL1 sequence (M1-F508) replaces the KL1 domain of mouse KLB (M1-F506) to create human-mouse KLB (SEQ ID NO: 374). Additionally, the expression vector pYD7 harboring no KLB sequence was transfected as a negative control.
(§2) In some studies, binding of a purified sample of a humanized 5H23 antibody (e.g., VH SEQ ID NO: 271 and VL SEQ ID NO: 276) to KLB variants was determined by FACS analysis. […] After washing with PBS/1% BSA/0.1% azide, transfected cells were then co-incubated with labeled anti-human Fc (Jackson lmmunoresearch) for 30 minutes at 4° C. After washing with PBS/1% BSA/0.1% azide, cells were acquired on flow cytometer (FACS Calibur) and analyzed by cytometric software (FlowJo). To display the resulting data, graphs plotting the number of cells as a function of fluorescence intensity were generated, and the median fluorescence intensity (MFI) was determined for each sample as shown in Table 30.

[2] = target: T2, human beta klotho expressed on cells
Protocol: as §1, §2

[3] = target: T3, human-mouse KLB chimeric protein (human KLB (M1-F508)-mouse KLB (P507-S1043)) on cells (human/mouse chimera, UniProt Q99N32 1-1043 (mouse entry))
T3 construct: also called Human-Mouse chimeric KLB; chHuMo
Protocol: as §1, §2

Binder | binding result [1] | binding result [2] | binding result [3]
B1 | no binding (tested: 1 µg/ml) | no binding (tested: 1 µg/ml) | 
B2 |  |  | no binding (tested: 1 µg/ml)
